According to US7838231 (REGENTS OF THE UNIVERSITY OF MICHIGAN, dated 2010):

Experiments:
Assay in all cases: direct yeast two-hybrid assay
[1] = target: T1, NPHP1, human full length, yeast two-hybrid prey (human, UniProt O15259 1-732)
T1 construct: also called nephrocystin 1
T1 sequence (looked up): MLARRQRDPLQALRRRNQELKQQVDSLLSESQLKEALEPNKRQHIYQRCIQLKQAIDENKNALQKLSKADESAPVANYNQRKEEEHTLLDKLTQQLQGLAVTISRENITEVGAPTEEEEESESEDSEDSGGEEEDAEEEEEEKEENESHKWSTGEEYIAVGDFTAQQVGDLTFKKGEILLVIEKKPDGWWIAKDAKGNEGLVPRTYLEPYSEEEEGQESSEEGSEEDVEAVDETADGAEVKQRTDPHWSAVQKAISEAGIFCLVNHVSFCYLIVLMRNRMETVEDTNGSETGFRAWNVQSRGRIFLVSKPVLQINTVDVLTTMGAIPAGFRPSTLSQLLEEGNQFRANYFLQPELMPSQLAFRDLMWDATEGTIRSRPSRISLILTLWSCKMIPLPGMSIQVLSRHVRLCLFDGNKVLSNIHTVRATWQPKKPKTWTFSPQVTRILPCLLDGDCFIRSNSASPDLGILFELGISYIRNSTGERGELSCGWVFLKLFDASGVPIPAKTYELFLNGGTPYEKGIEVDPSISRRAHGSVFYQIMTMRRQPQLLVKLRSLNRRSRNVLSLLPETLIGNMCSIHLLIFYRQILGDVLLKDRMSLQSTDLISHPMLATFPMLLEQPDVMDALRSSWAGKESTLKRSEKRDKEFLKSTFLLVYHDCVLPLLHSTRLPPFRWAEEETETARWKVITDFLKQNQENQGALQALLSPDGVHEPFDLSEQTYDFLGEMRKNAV

[2] = target: T2, inversin (NPHP2), human full length, yeast two-hybrid prey (human, UniProt Q9Y283 1-1065)
T2 construct: also called INVS
T2 sequence: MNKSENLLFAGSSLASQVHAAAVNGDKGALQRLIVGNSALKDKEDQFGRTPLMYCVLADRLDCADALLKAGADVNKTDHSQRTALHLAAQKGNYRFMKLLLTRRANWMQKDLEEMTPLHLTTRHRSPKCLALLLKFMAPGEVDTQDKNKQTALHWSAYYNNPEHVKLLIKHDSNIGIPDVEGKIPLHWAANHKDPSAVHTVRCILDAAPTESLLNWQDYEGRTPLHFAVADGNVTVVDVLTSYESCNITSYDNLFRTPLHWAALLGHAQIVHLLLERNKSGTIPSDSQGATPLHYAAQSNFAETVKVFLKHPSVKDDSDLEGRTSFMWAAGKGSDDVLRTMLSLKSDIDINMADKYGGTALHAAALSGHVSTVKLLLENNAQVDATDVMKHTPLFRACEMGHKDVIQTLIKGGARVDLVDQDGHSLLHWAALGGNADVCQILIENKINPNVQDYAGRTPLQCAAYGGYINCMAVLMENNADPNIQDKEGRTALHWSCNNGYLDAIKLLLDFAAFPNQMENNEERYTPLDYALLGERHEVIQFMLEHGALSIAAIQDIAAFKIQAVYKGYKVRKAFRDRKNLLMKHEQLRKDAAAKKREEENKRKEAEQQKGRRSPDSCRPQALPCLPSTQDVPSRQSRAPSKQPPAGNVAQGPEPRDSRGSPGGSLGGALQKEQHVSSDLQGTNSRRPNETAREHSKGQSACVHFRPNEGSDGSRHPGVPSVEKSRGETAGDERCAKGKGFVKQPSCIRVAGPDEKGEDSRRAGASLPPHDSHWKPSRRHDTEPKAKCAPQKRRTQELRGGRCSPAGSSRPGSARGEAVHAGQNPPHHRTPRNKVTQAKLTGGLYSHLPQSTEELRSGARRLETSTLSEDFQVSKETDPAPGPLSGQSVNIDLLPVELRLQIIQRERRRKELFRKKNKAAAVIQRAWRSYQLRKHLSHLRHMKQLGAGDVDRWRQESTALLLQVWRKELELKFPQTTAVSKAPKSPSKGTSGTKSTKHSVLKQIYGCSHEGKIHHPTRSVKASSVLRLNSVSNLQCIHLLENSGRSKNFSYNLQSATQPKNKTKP

[3] = target: T3, BBS7, human full length, yeast two-hybrid prey (human, UniProt Q8IWZ6 1-715)
T3 sequence (looked up): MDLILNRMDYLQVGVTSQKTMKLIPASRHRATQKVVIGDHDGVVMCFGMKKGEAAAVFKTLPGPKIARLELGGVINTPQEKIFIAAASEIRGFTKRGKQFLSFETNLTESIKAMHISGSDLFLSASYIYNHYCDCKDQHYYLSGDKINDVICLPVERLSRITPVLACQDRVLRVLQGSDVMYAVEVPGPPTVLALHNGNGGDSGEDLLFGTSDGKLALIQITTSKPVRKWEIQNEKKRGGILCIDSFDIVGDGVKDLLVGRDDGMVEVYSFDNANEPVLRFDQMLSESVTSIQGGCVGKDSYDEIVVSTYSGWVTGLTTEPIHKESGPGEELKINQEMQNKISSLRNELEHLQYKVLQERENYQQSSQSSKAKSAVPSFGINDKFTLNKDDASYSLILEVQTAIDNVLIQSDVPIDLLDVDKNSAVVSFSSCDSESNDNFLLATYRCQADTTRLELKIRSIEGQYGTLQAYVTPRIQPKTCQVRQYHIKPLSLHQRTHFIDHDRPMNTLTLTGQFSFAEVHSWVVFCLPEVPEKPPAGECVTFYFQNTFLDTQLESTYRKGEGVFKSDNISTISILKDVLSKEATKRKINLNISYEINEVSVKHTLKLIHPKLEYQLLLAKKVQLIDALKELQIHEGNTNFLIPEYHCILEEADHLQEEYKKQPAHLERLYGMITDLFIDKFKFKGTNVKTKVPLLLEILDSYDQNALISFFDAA

[4] = target: T4, KIF3A, yeast two-hybrid construct (UniProt Q9Y496 1-699)
T4 construct: The construct is not described in the methods; not shown: GAL4 domain of the two-hybrid vector; not described for this construct

Measured: binding result

T4 sequence (Q9Y496 whole entry, the tested form may be a part): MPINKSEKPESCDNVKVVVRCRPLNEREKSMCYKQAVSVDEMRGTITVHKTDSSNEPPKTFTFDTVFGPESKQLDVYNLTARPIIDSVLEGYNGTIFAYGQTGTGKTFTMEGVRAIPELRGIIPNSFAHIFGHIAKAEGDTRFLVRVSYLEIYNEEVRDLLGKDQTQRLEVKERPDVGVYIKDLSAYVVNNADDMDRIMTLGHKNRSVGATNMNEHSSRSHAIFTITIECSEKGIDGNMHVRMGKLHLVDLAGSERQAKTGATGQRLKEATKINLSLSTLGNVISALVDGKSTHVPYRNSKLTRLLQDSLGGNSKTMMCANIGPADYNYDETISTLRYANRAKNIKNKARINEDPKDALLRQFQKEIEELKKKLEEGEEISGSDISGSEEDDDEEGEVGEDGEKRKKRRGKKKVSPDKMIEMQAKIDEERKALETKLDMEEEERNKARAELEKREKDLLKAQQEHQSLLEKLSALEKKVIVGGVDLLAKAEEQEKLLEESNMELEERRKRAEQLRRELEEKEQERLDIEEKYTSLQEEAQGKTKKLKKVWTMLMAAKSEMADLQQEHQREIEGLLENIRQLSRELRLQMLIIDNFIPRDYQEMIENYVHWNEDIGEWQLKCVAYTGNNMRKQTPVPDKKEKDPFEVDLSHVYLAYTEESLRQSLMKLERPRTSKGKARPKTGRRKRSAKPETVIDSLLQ

B1: full-length human nephrocystin-5 (NPHP5), yeast two-hybrid fusion (other, not shown: small tags and cut ends)
chain: MKPTGTDPRILSIAAEVAKSPEQNVPVILLKLKEIINITPLGSSELKKIKQDIYCYDLIQYCLLVLSQDYSRIQGGWTTISQLTQILSHCCVGLEPGEDAEEFYNELLPSAAENFLVLGRQLQTCFINAAKAEEKDELLHFFQIVTDSLFWLLGGHVELIQNVLQSDHFLHLLQADNVQIGSAVMMMLQNILQINSGDLLRIGRKALYSILDEVIFKLFSTPSPVIRSTATKLLLLMAESHQEILILLRQSTCYKGLRRLLSKQETGTEFSQELRQLVGLLSPMVYQEVEEQKLHQAACLIQAYWKGFQTRKRLKKLPSAVIALQRSFRSKRSKMLLEINRQKEEEDLKLQLQLQRQRAMRLSRELQLSMLEIVHPGQVEKHYREMEEKSALNIQKHWRGYRERKNFHQQRQSLIEYKAAVTLQRAALKFLAKCRKKKKLFAPWRGLQELTDARRVELKKRVDDYVRRHLGSPMSDVVSRELHAQAQERLQHYFMGRALEERAQQHREALIAQISTNVEQLMKAPSLKEAEGKEPELFLSRSRPVAAKAKQAHLTTLKHIQAPWWKKLGEESGDEIDVPKDELSIELENLFIGGTKPP
notes: Full-length NPHP5 cDNA (598 amino acid residues) fused to a GAL4 domain; also called KIAA0036
no binding: all assays above
